Target: recombinant human TNF (human) (UniProt P01375)
Assay: binding assays of cA2 and recombinant human TNF (format not described)

Chain of UniProt P01375 (P01375 77-233 limits assumed): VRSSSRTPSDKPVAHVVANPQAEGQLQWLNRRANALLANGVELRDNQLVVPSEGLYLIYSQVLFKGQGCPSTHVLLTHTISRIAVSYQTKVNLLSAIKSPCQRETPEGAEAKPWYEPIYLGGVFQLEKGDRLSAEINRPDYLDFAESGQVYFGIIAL

chimeric A2 (cA2) anti-TNF monoclonal antibody
Ka: 1.8e+09 M⁻¹
